From patent US20250099635A1, “IIMMUNOCONJUGATES COMPRISING KALLIKREIN RELATED PEPTIDASE 2 ANTIGEN BINDING DOMAINS AND THEIR USES” (Janssen Biotech, Inc., priority 2022, published 2025) come the findings set out here.

The target of this assay is soluble human kallikrein related peptidase 2 (hK2) protein (human) (UniProt P20151). The assay is described as follows: SPR; antibody captured by anti-Fc antibody, soluble hK2 injected; 1:1 Langmuir fit.
Chain of soluble human kallikrein related peptidase 2 (hK2) protein (human) (P20151 19-261): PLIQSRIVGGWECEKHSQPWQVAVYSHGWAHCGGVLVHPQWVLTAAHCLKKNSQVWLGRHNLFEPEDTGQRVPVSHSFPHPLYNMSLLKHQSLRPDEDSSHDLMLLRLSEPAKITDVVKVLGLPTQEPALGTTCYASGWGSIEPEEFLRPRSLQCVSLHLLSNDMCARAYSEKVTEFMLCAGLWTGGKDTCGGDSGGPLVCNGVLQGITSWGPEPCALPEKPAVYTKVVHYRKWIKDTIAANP

B1: KL2B413 (scFv-LH-Fc) (Fc fusion, part only; not given: Fc part, part only)
scFv, part: EIVLTQSPSFLSASVGDRVTITCRASQGISSYLSWYQQKPGKAPKLLIYATSTLQSGVPSRFSGSGSGTEFTLTISSLQPEDFATYYCQQLNSYPRTFGQGTKVEIKGGSEGKSSGSGSESKSTGGSEVQLVESGGGLVQPGGSLRLSCAASGFTFSSYWMTWVRQAPGKGLEWVANIKQDGSERYYVDSVKGRFTISRDNAKNSLYLQMNSLRAEDTAVYYCARDQNYDILTGHYGMDVWGQGTTVTVSS
Turning to B1, the Kd (commonly the equilibrium constant for the complex coming apart) came to 34.3 nM.

B2: KL2B359 (scFv-LH-Fc) (Fc fusion, part only; not given: Fc part, part only)
scFv, part: EIVLTQSPATLSLSPGERATLSCRASESVEYFGTSLMHWYQQKPGQPPRLLIYAASNVESGIPARFSGSGSGTDFTLTISSVEPEDFAVYFCQQTRKVPYTFGGGTKVEIKGGSEGKSSGSGSESKSTGGSQVQLQESGPGLVKPSQTLSLTCTVSGNSITSDYAWNWIRQFPGKRLEWIGYISYSGSTTYNPSLKSRVTISRDTSKNQFSLKLSSVTAADTAVYYCATGYYYGSGFWGQGTLVTVSS
In the case of B2, the Kd was in the range of 0.7 to 1 nM.
